B2: full-length Casp-8 mutant F122G/L123G/C360A/D374A/D384A (natural protein, human, UniProt Q14790 1-479, looked up)
chain: MDFSRNLYDIGEQLDSEDLASLKFLSLDYIPQRKQEPIKDALMLFQRLQEKRMLEESNLSFLKELLFRINRLDLLITYLNTRKEEMERELQTPGRAQISAYRVMLYQISEEVSRSELRSFKGGLQEEISKCKLDDDMNLLDIFIEMEKRVILGEGKLDILKRVCAQINKSLLKIINDYEEFSKERSSSLEGSPDEFSNGEELCGVMTISDSPREQDSESQTLDKVYQMKSKPRGYCLIINNHNFAKAREKVPKLHSIRDRNGTHLDAGALTTTFEELHFEIKPHDDCTVEQIYEILKIYQLMDHSNMDCFICCILSHGDKGIIYGTDGQEAPIYELTSQFTGLKCPSLAGKPKVFFIQAAQGDNYQKGIPVETASEEQPYLEMALSSPQTRYIPDEADFLLGMATVNNCVSYRNPAEGTWYIQSLCQSLRERCPRGDDILTILTEVNYEVSNKDDKKNMGKQMPQPTFTLRKKLVFPSD
notes: procaspase-8 (Casp-8), human, full length with FGLG mutations, catalytic inactivity and processing deficiencies; only the tDED is visible in the cryo-EM maps (protease domain not visible); The methods name E. coli BL21-CodonPlus only for FADD, the Casp-8 tDED mutant and cFLIP tDED; also called Casp-8^tDED molecules C8a, C8b, C8c (triple-FADD complex)
B4: full-length FADD H9G mutant (FADD^FuL_H9G) (natural protein)
chain: MDPFLVLLGSVSSSLSSSELTELKFLCLGRVGKRKLERVQSGLDLFSMLLEQNDLEPGHTELLRELLASLRRHDLLRRVDDFEAGAAAGAAPGEEDLCAAFNVICDNVGKDWRRLARQLKVSDTKIDSIEDRYPRNLTERVRESLRIWKNTEKENATVAHLVGALRSCQMNLVADLVQEVQQARDLQNRSGAMSPMSWNSDASTSEAS
notes: Fas-associated protein with death domain (FADD), human, full length, H9G; only the DED is visible in the crystal structure (FADD DD not visible); A selenomethionine-substituted complex was also made for phasing (PDB 8YD7); also called FADD^DED molecule FAl; source: E. coli BL21-CodonPlus, co-purified in the ternary complex (Ni-NTA, SEC); not shown: 6xHis, C-terminal, kept
B5: wild-type full-length FADD (FADD^FuL) (natural protein, human, UniProt Q13158 1-208, looked up)
chain: MDPFLVLLHSVSSSLSSSELTELKFLCLGRVGKRKLERVQSGLDLFSMLLEQNDLEPGHTELLRELLASLRRHDLLRRVDDFEAGAAAGAAPGEEDLCAAFNVICDNVGKDWRRLARQLKVSDTKIDSIEDRYPRNLTERVRESLRIWKNTEKENATVAHLVGALRSCQMNLVADLVQEVQQARDLQNRSGAMSPMSWNSDASTSEAS
notes: Fas-associated protein with death domain (FADD), human, wild type, full length; only the DED is visible in the cryo-EM maps; also called FA^FuL; WT FADD; source: E. coli BL21-CodonPlus; co-purified in the ternary complex (Ni-NTA, SEC); also in precipitates of overexpressed proteins resuspended in water; not shown: 6xHis, C-terminal, kept

Legend:
[1] = biological target: B5; test: negative-stain EM; C8^FGLG purified by SEC, in the presence of WT FADD with a C-terminal His-tag; FADD detected by Ni-NTA Nanogold; SDS-PAGE of the EM sample; details: both partners purified
cFLIP^tDED H7G mutant = cFLIP^tDED H7G mutant (human, UniProt O15519 1-181, H7G); test: crystal structure; FA^FuL_H9G-C8^FGLG-CF^H7G complex; proteins individually expressed in E. coli, complex co-purified by Ni-NTA and SEC (80 mM NaCl, 20 mM Tris pH 8.0); hanging drop, 20 °C; MR-SAD; 3.1 Å; one 1:5:4 complex per asymmetric unit; FADD DD not visible; details: both partners purified
[2] = biological target: B4; test: as above; details: both partners purified
wild-type cFLIP^tDED = wild-type cFLIP^tDED (human, UniProt O15519 1-181); test: cryo-EM structure; FA^FuL-C8^FuL_FGLG_CADA-CF complex; Complex A without cross-linking (7.5 Å) and Complex B stabilised by GraFix, glutaraldehyde (3.7 Å); Casp-8 protease domain and FADD DD not visible; details: both partners purified
[3] = biological target: the molecule itself; test: as above
[4] = biological target: the molecule itself; test: SEC + other: negative-stain EM; Casp-8^tDED_F122A and CF^H7G co-expressed; SEC profile, negative-stain EM and SDS-PAGE of the peak fractions
[5] = biological target: B2; test: cryo-EM structure; FA^FuL-C8^FuL_FGLG_CADA-CF complex; Complex A without cross-linking (7.5 Å) and Complex B stabilised by GraFix, glutaraldehyde (3.7 Å); Casp-8 protease domain and FADD DD not visible; details: both partners purified

B1: Casp-8^tDED_F122G/L123G mutant (domain or fragment, human, UniProt Q14790 1-185, looked up)
chain: MDFSRNLYDIGEQLDSEDLASLKFLSLDYIPQRKQEPIKDALMLFQRLQEKRMLEESNLSFLKELLFRINRLDLLITYLNTRKEEMERELQTPGRAQISAYRVMLYQISEEVSRSELRSFKGGLQEEISKCKLDDDMNLLDIFIEMEKRVILGEGKLDILKRVCAQINKSLLKIINDYEEFSKER
notes: procaspase-8 (Casp-8) tandem DED, human, residues 1-185, F122G/L123G (FGLG) in the FL motif of DED2; The methods name no tag for this protein; also called C8^FGLG; source: E. coli BL21-CodonPlus; co-purified in the ternary complex (Ni-NTA, SEC); also purified alone by SEC
- binding result [1]: binds
- binding result (cFLIP^tDED H7G mutant): binds
- binding result [2]: binds

Binder: B2
- binding result (wild-type cFLIP^tDED): binds
- stoichiometry N [3]: 3

B3: Casp-8^tDED F122A mutant (Casp-8^tDED_F122A) (domain or fragment, human, UniProt Q14790 1-185, looked up)
chain: MDFSRNLYDIGEQLDSEDLASLKFLSLDYIPQRKQEPIKDALMLFQRLQEKRMLEESNLSFLKELLFRINRLDLLITYLNTRKEEMERELQTPGRAQISAYRVMLYQISEEVSRSELRSFKALLQEEISKCKLDDDMNLLDIFIEMEKRVILGEGKLDILKRVCAQINKSLLKIINDYEEFSKER
notes: source: E. coli, co-expressed with CF^H7G, SEC
- binding result [4]: binds

Binder: B4
- binding result (cFLIP^tDED H7G mutant): binds

Binder: B5
- binding result [5]: binds
